The record followed here is US20230250188A1 (NATIONAL UNIVERSITY CORPORATION KOCHI UNIVERSITY, published 2023).

By Kd is commonly meant the free concentration of one partner at which half of the binding sites on the other are occupied at equilibrium, for simple one-to-one binding. By koff is commonly meant a measure of how fast the partners let go of each other. As usually defined, the kon is a measure of how fast the partners come together.

The target of assay [1] is T1, human GPC1 on the surface of GPC1-positive cancer cells (TE8, TE14, BxPC-3) (human, UniProt P35052 24-530).
T1 sequence: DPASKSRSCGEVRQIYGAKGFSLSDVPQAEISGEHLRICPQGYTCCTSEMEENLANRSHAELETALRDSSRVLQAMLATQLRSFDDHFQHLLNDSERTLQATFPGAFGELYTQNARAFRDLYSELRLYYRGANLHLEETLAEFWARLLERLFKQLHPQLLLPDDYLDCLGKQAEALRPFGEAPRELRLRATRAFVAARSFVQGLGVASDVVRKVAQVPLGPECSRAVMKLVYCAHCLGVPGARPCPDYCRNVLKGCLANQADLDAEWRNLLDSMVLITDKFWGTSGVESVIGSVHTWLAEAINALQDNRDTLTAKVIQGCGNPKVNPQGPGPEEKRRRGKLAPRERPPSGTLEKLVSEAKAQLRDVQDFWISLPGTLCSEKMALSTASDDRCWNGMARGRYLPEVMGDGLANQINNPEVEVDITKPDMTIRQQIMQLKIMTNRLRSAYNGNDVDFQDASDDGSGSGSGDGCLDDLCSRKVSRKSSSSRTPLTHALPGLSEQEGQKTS
The assay can be described thus: cell-based or functional assay.

Assay [2] deals with T2, recombinant human GPC1 protein (R&D Systems) (human, UniProt P35052 24-530).
T2 construct: Bought recombinant protein (R&D Systems); also called human GPC-1 antigen; Glypican-1
T2 sequence: T1 sequence
The assay can be described thus: SPR (Biacore 8K); antibody captured by anti-human IgG (Fc) on a CM5 chip, recombinant human GPC1 flowed over. Here is the method:
The mouse anti-human-GPC1 monoclonal antibody was humanized (subclass: IgG4), and the obtained twenty clones (T1, T2, T3, T7, T8, T10, T11, T22, T26, T28, T29, T31, T32, T33, T34, T36, T43, T56, T57, T59) were prepared. An anti-human IgG (Fc) was immobilized on an sCM5 sensor chip (GE Healthcare) using Human antibody capture kit (GE Healthcare), and the affinity of each of these clones to a recombinant human GPC1 protein (R&D Systems) was measured using Biacore (registered trademark) 8K (GE Healthcare).
For orientation: SPR reads the build-up and loss of mass on a sensor chip optically.

Numbering of substitutions follows the chain as printed.

B1: humanized anti-GPC1 monoclonal antibody clone T1 (antibody, human IgG4 S228P, kappa, V domains shown)
VH: QVQLVQSGAEVKKPGASVKVSCKASGYTFTGYYMHWVRQAPGQGLEWMGEINPSTGDTTYNQKFKARVTMTRDTSTSTVYMELSSLRSEDTAVYYCAREKRDDGVFAYWGQGTLVTVSS
VL: DIVMTQSPSFLSASVGDRVTITCRASQGISSYLVWYQQKPGKAPKLLIYSASVLQSGVPSRFSGRGYGTDFTLTISSLQPEDFATYYCQQSFSIPPVTFGGGTKVEIKR
notes: IgG
As for B1, the “IC50 of cytotoxicity on TE14 cells (ATP cell viability, 144 h) with MMAF-linked anti-human-IgG Fab as secondary antibody” value (“IC50 of cytotoxicity on TE14 cells” for short) in assay [1] was found to be 0.0399 nM. Further, in assay [2], the Kd worked out at 5.62 nM, the off-rate constant (koff) came to 0.00134 s⁻¹ and the kon stood at 238000 M⁻¹ s⁻¹.

B2: humanized anti-GPC1 monoclonal antibody clone T29 (antibody, human IgG4 S228P, kappa, V domains shown)
VH: B1 VH
VL: DIVMTQSPSSLSASVGDRVTITCRASQDISSYLNWYQQKPGEAPKLLVYGASNLQRGVPPGFRGSGSGTDFTLTINNLQPEDFATYYCQQSSTSPITFGQGTRLEIKR
notes: IgG
With B2, the “IC50 of cytotoxicity on TE14 cells” value in assay [1] was found to be 2.18 nM. In assay [2], the dissociation constant (Kd) was determined as 324 nM, the koff came out at 0.0664 s⁻¹ and the association rate constant (kon) was 205000 M⁻¹ s⁻¹.

B3: humanized anti-GPC1 monoclonal antibody clone T11 (antibody, human IgG4 S228P, kappa, V domains shown)
VH: B1 VH
VL: AIRMTQSPSSLSASVGDRVTITCRASRSISTYLHWYQQKAGKAPKLLIYSAYNLQSGVPSRFSGSGSGTDFTLTISSLQPEDFATYYCQQSYSTPYTFGQGTKVEIKR
notes: IgG
Turning to B3, the “IC50 of cytotoxicity on TE14 cells” value in assay [1] turned out to be 0.121 nM. In assay [2], the Kd came out at 272 nM, the koff stood at 0.0506 s⁻¹ and the kon came to 186000 M⁻¹ s⁻¹.

B4: humanized anti-GPC1 monoclonal antibody clone T3 (antibody, human IgG4 S228P, kappa, V domains shown)
VH: B1 VH
VL: DIVMTQSPSSVSASVGDRVSITCRASEHINGWLAWYQQIPGKAPRILISSASILQSGAPSRFSGSGFGTDFTLTISSVQPEDFATYYCQQAKSYPLTFGGGTKVEIKR
notes: IgG
B4: the “IC50 of cytotoxicity on TE14 cells” value in assay [1] is 0.0526 nM. Also, in assay [2], the dissociation constant (Kd) is 3.11 nM, the dissociation rate constant (koff) was 0.000713 s⁻¹ and the on-rate (kon) was determined as 229000 M⁻¹ s⁻¹.

B5: humanized anti-GPC1 monoclonal antibody clone T22 (antibody, human IgG4 S228P, kappa, V domains shown)
VH: B1 VH
VL: AIQMTQSPASLSASLGDRITITCRTSQTVAGYLNWYQQTPGNAPKLLIYSASNLQSGVPSRFSGSGSGRDFSLTISSLQSEDSATYYCQHSYSTPYTFGQGTKVEIKR
notes: IgG
Turning to B5, the “IC50 of cytotoxicity on TE14 cells” value in assay [1] came out at 0.745 nM. In addition, in assay [2], the dissociation constant (Kd) was 218 nM, the off-rate constant (koff) turned out to be 0.0506 s⁻¹ and the kon turned out to be 232000 M⁻¹ s⁻¹.

B6: humanized anti-GPC1 monoclonal antibody clone T31 (antibody, human IgG4 S228P, kappa, V domains shown)
VH: B1 VH
VL: AIQMTQSPATLSLSPGQRATLSCRASQSVSNYLAWYQQKPGQAPRLLIYDVSNRASGIPARFSGSGSGTDFTLTISSLEPEDFAIYYCQQRSNWPLTFGQGTKVDIKR
notes: IgG
Take B6: the “IC50 of cytotoxicity on TE14 cells” value in assay [1] is 0.688 nM. For the same molecule, in assay [2], the Kd worked out at 271 nM, the koff is 0.0539 s⁻¹ and the on-rate constant (kon) was 198000 M⁻¹ s⁻¹.

B7: humanized anti-GPC1 monoclonal antibody clone T33 (antibody, human IgG4 S228P, kappa, V domains shown)
VH: B1 VH
VL: DVVMTQSPATLSVPPGDRATLSCRASQSVSSRLAWYQQKPGQAPKLLIYGASTRATGIPARFSGSWSGTEFTLTVSSLQSEDSAVYYCQQYNDWPRYTFGQGTKLEIKR
notes: IgG
As for B7, in assay [1], the “IC50 of cytotoxicity on TE14 cells” value came out at 1.86 nM. Besides, in assay [2], the equilibrium dissociation constant (Kd) is 462 nM, the koff was determined as 0.0738 s⁻¹ and the kon is 160000 M⁻¹ s⁻¹.

B8: humanized anti-GPC1 monoclonal antibody clone T26 (antibody, human IgG4 S228P, kappa, V domains shown)
VH: B1 VH
VL: DVVMTQSPSSLSASVGERVTITCRASQSISSYLNWYQQKPGKAPKLLIYAASSRATGIPHRYSGSGSGTVFTLTISRLEPEDFATYYCQQFHSYPITFGQGTRLEIKR
With B8, the “IC50 of cytotoxicity on TE14 cells” value in assay [1] is 0.803 nM.

B9: humanized anti-GPC1 monoclonal antibody clone T32 (antibody, human IgG4 S228P, kappa, V domains shown)
VH: B1 VH
VL: DVVMTQSPGTLSLSPGERATLSCSASQSVSSNLAWYQQKPGQAPRLLIYGTSSRATGVPARFSGSGSGTEFTLTISSLQSEDFAAYYCQQYNSWPLTFGGGTKVEIKR
notes: IgG
In the case of B9, in assay [1], the “IC50 of cytotoxicity on TE14 cells” value worked out at 0.888 nM. Moreover, in assay [2], the dissociation constant Kd turned out to be 290 nM, the dissociation rate constant (koff) came to 0.0603 s⁻¹ and the kon was found to be 208000 M⁻¹ s⁻¹.

B10: humanized anti-GPC1 monoclonal antibody clone T7 (antibody, human IgG4 S228P, kappa, V domains shown)
VH: B1 VH
VL: AIQLTQSPSTLSASVGDRVTITCRASQSISSWLAWYQQKPGKAPKLLISDASNLASGVPLRFSGSGFGTHFTLTIDNLQPEDIATYSCQQYNNYPFTFGLGTKLEIKR
notes: IgG
In the case of B10, the “IC50 of cytotoxicity on TE14 cells” value in assay [1] worked out at 0.0365 nM. Further, in assay [2], the Kd is 12 nM, the dissociation rate constant (koff) was 0.00411 s⁻¹ and the kon worked out at 343000 M⁻¹ s⁻¹.

B11: humanized anti-GPC1 monoclonal antibody clone T59 (antibody, human IgG4 S228P, kappa, V domains shown)
VH: B1 VH
VL: EIVMTQSPSSLSASVGDRVTITCQASQHISNKLNWYQQKPGKAPKLLIYDASNLETGVPSRFSGSGYGTDFTFTVSSLQPEDIATYYCQQYDNLPITFGQGTRLEIKR
notes: IgG
With B11, the “IC50 of cytotoxicity on TE14 cells” value in assay [1] turned out to be 0.37 nM. In addition, in assay [2], the equilibrium dissociation constant (Kd) was 302 nM, the koff is 0.0593 s⁻¹ and the association rate constant (kon) was determined as 197000 M⁻¹ s⁻¹.

B12: humanized anti-GPC1 monoclonal antibody clone T43 (antibody, human IgG4 S228P, kappa, V domains shown)
VH: B1 VH
VL: DIVMTQSPSSLSASVGDRVTITCRASQGIRSALAWYQQKPGKAPKLLIYDASNLQSGVPSRFSGSGSGTDFTLTISDVQAEDFGTYYCQQSFGPPRTFGQGTRLEIKR
notes: IgG
On to B12, for which the “IC50 of cytotoxicity on TE14 cells” value in assay [1] was 0.37 nM. In assay [2], the Kd was found to be 62.4 nM, the koff came to 0.0106 s⁻¹ and the on-rate (kon) came out at 169000 M⁻¹ s⁻¹.

B13: humanized anti-GPC1 monoclonal antibody clone T28 (antibody, human IgG4 S228P, kappa, V domains shown)
VH: B1 VH
VL: DIQMTQSPSSLSASLGEMVTITCRASESIHSYLNWYQQKPGKAPNLLIYDASNLESGVPSRFSGSGYGTDFTLTISSLQPEDFATYYCQQSYGPPITFGQGTRLEIKR
notes: IgG
B13: the “IC50 of cytotoxicity on TE14 cells” value in assay [1] was found to be 0.153 nM. Moreover, in assay [2], the equilibrium dissociation constant (Kd) was found to be 21.7 nM, the koff worked out at 0.00679 s⁻¹ and the kon turned out to be 313000 M⁻¹ s⁻¹.

B14: humanized anti-GPC1 monoclonal antibody clone T10 (antibody, human IgG4 S228P, kappa, V domains shown)
VH: B1 VH
VL: B4 VL with D1E, M4L, S10T, V11L, S20T, E27Q, H28S, N30S, G31S, V104L
notes: IgG
On to B14, for which, in assay [1], the “IC50 of cytotoxicity on TE14 cells” value turned out to be 0.0488 nM. Also, in assay [2], the Kd was 7.55 nM, the koff stood at 0.0015 s⁻¹ and the on-rate (kon) was determined as 199000 M⁻¹ s⁻¹.

B15: humanized anti-GPC1 monoclonal antibody clone T34 (antibody, human IgG4 S228P, kappa, V domains shown)
VH: B1 VH
VL: B4 VL with D1V, V3W, S20T, E27Q, H28A, I39K, S49Y, I53T, S56T
notes: IgG
Consider B15, for which the “IC50 of cytotoxicity on TE14 cells” value in assay [1] is 0.0501 nM. In assay [2], the Kd turned out to be 22.8 nM, the off-rate constant (koff) was 0.00393 s⁻¹ and the kon was found to be 172000 M⁻¹ s⁻¹.
